Reference: USRE50282
*1 amine or outer side, *2 acyl side, *3 side chain or, on linkers, in order; H or OH if unused. Bridges are numbered along the chain shown (N, C = ends). Primed or numbered codes have the meaning given here. The star is where a group is joined. Biotin = O=C1N[C@H]2[C@H](CS[C@H]2CCCCC(=O)*)N1; Glutaryl = O=C(CCCC(=O)[*:2])[*:1]; HOOC(CH2)6CO = O=C(O)CCCCCCC(=O)*; PEG4′ = not defined here

Experiments:
[1] = target: human IgG (Chugai Pharmaceutical Co., Ltd.) (human); test: SPR (BIAcore T200), IgG immobilised; equilibrium value
[2] = target: human IgG (Chugai Pharmaceutical Co., Ltd.) (human); test: SPR (BIAcore T200), IgG immobilised; 1:1 binding fit
[3] = target: human IgG (Chugai Pharmaceutical Co., Ltd.) (human); test: SPR (BIAcore T200), IgG immobilised

Binder	Kd [1]	Kd [2]	fold decrease in affinity against Type I [3]
{Biotin-PEG4′}-GDDCAYHK(Glutaryl)GELVWCTFH-NH2 (disulfide 4-14 (inferred)) [Type I(R8K)-DSG-OH, GDDCAYHK(DSG-OH)…-NH2]	330 nM	315 nM	
{Biotin-PEG4′}-GDDCAYHK(HOOC(CH2)6CO)GELVWCTFH-NH2 (disulfide 4-14 (inferred)) [Type I(R8K)-DSS-OH, GDDCAYHK(DSS-OH)…-NH2]	389 nM	365 nM	
{Biotin-PEG4′}-GDDCAYHKGELVWCTFH-NH2 (disulfide 4-14 (inferred)) [Type I(R8K) IgG-binding peptide, …-NH2]	131 nM	156 nM	10 times
{Biotin-PEG4′}-GPDCAYHRGELVWCTFH-NH2 (disulfide 4-14 (inferred)) [Type I IgG-binding peptide, …-NH2]	10 nM	9.1 nM	
